The source of these data is patent US9926355 (NEW YORK UNIVERSITY, dated 2018).

In test [1] the target is T1, ligand-binding domain of human FGFR1c (D142 to R365) (human, UniProt P11362 142-365).
T1 construct: range 142-365
T1 sequence (looked up): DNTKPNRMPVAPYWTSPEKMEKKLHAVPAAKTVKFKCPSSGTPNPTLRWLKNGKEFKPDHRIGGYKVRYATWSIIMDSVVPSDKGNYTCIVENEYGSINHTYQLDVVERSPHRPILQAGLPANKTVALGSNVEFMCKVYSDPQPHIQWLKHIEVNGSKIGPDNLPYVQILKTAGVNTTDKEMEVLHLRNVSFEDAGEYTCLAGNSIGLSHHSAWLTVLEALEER
Nature of the test: SPR; immobilized FGF21, FGFR1c ligand-binding domain in solution. From the text: (§1) FIGS. 10A-10D show overlays of SPR sensorgrams illustrating binding of FGFR1c to FGF2 (FIG. 10A), FGF19 (FIG. 10B), FGF21 (FIG. 10C), and FGF23 (FIG. 10D), and fitted saturation binding curves. Increasing concentrations of FGFR1c ligand-binding domain were passed over a biosensor chip containing immobilized FGF2, FGF19, FGF21, or FGF23. […] Increasing concentrations of αKlotho-FGFR1c complex were passed over a biosensor chip containing immobilized FGF23. […] FGF2^3C-tail was immobilized on a biosensor chip and increasing concentrations of FGFR1c ligand-binding domain were passed over the chip. Dissociation constants (K_Ds) given in FIGS. 10A-10E were derived from the saturation binding curves.
(§2) Example 2—Analysis of FGF-Heparin and FGF-FGFR-α/Klotho Interactions by Surface Plasmon Resonance Spectroscopy Surface plasmon resonance (SPR) experiments were performed on a Biacore 2000 instrument (Biacore AB), and the interactions were studied at 25° C. in HBS-EP buffer (10 mM HEPES-NaOH, pH 7.4, 150 mM NaCl, 3 mM EDTA, 0.005% (v/v) polysorbate 20). To study endocrine FGF-heparin interactions, a heparin chip was prepared by immobilizing biotinylated heparin (Sigma-Aldrich) on flow channels of a research-grade streptavidin chip (Biacore AB). The coupling density was ~5 fmol mm^-2 of flow channel. […]
(Surface plasmon resonance follows binding to a sensor surface in real time, without labels.)

Test [2] addresses T1, ligand-binding domain of human FGFR1c …. Nature of the test: SPR; FGF23 immobilized, increasing concentrations of FGFR1c ligand-binding domain; KD only in the figure.
Text: as §1, §2

Test [3] shares this target. Nature of the test: SPR; FGF23 C-tail peptide immobilized, increasing concentrations of FGFR1c ligand-binding domain.
Text: as §1, §2

B1: N-terminally hexahistidine-tagged, mature form of human FGF21 (H29 to S209) (ligand)
chain: HPIPDSSPLLQFGGQVRQRYLYTDDAQQTEAHLEIREDGTVGGAADQSPESLLQLKALKPGVIQILGVKTSRFLCQRPDGALYGSLHFDPEACSFRELLLEDGYNVYQSEAHGLPLHLPGNKSPHRDPAPRGPARFLPLPGLPPALPEPPGILAPQPPDVGSSDPLSMVGPSQGRSPSYAS
notes: also called native FGF21; not shown: N-terminal hexahistidine tag
As to B1, the binding result in test [1] is “binds”.

B2: N-terminally hexahistidine-tagged, mature form of human FGF23 (Y25 to I251), R176Q/R179Q (ligand)
chain: YPNASPLLGSSWGGLIHLYTATARNSYHLQIHKNGHVDGAPHQTIYSALMIRSEDAGFVVITGVMSRRYLCMDFRGNIFGSHYFDPENCRFQHQTLENGYDVYHSPQYHFLVSLGRAKRAFLPGMNPPPYSQFLSRRNEIPLIHFNTPIPRQHTQSAEDDSERDPLNVLKPRARMTPAPASCSQELPSAEDNSPMASDPLGVVRGGRVNTHAGGTGPEGCRPFAKFI
notes: also called native FGF23; wild-type FGF23; not shown: N-terminal hexahistidine tag
B2: in test [2], the binding result is reported as “binds”.

B3: N-terminally hexahistidine-tagged C-terminal tail peptide of FGF23 (S180 to I251) (peptide)
peptide: SAEDDSERDPLNVLKPRARMTPAPASCSQELPSAEDNSPMASDPLGVVRGGRVNTHAGGTGPEGCRPFAKFI
notes: also called FGF23^C-tail; not shown: N-terminal hexahistidine tag
Regarding B3, the binding result in test [3] was “no binding”.
